# Assays:
# [1] = biological target: endogenous tau of rat primary nerve cells, P19332
# [2] = biological target: wild-type human tau overexpressed in H4-tau cells
# Chain of endogenous tau of rat primary nerve cells, P19332 (P19332 2-752): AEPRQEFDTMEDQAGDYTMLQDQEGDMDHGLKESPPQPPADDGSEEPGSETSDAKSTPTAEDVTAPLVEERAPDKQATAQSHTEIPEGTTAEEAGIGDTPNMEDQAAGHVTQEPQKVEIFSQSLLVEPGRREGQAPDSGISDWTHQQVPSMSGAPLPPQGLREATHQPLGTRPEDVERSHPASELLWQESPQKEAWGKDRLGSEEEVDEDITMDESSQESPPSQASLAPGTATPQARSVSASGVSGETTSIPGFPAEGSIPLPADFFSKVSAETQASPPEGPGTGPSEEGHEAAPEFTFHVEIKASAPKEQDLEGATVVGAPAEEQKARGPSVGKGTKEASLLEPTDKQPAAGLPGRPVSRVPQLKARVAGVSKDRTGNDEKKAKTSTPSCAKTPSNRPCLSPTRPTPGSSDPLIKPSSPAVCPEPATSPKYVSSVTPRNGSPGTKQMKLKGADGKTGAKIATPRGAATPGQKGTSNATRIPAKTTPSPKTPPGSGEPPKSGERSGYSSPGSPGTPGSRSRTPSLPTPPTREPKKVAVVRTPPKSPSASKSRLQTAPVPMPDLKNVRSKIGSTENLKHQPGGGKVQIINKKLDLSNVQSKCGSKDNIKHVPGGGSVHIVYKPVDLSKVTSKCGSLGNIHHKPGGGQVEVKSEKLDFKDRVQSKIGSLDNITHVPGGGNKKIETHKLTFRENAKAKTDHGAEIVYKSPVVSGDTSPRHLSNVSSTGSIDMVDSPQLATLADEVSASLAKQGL
Protein,"amount of S214 phosphorylated tau, ELISA, PRKX lentivirus MOI 1 [1]","amount of S214 phosphorylated tau, ELISA, PRKX lentivirus MOI 3 [1]","amount of S214 phosphorylated tau, ELISA, PRKX lentivirus MOI 6 [1]","S214 phosphorylation of tau, Western blot, 0.02 µg PRKX expression plasmid [2]","S214 phosphorylation of tau, Western blot, 0.06 µg PRKX expression plasmid [2]","S214 phosphorylation of tau, Western blot, 0.2 µg PRKX expression plasmid [2]","amount of S214 phosphorylated tau in the total tau, ELISA, 0.02 µg PRKX expression plasmid [2]","amount of S214 phosphorylated tau in the total tau, ELISA, 0.06 µg PRKX expression plasmid [2]","amount of S214 phosphorylated tau in the total tau, ELISA, 0.2 µg PRKX expression plasmid [2]","amount of S214 phosphorylated tau, ELISA, D172A lentivirus MOI 1, 6 [1]","S214 phosphorylation of tau, Western blot and ELISA [2]"
"human PRKX (hPRKXkai), overexpressed from pPRKXkai plasmid or PRKX overexpression lentivirus (protein) MEAPGLAQAAAAESDSRKVAEETPDGAPALCPSPEALSPEPPVYSLQDFDTLATVGTGTFGRVHLVKEKTAKHFFALKVMSIPDVIRLKQEQHVHNEKSVLKEVSHPFLIRLFWTWHDERFLYMLMEYVPGGELFSYLRNRGRFSSTTGLFYSAEIICAIEYLHSKEIVYRDLKPENILLDRDGHIKLTDFGFAKKLVDRTWTLCGTPEYLAPEVIQSKGHGRAVDWWALGILIFEMLSGFPPFFDDNPFGIYQKILAGKIDFPRHLDFHVKDLIKKLLVVDRTRRLGNMKNGANDVKHHRWFRSVDWEAVPQRKLKPPIVPKIAGDGDTSNFETYPENDWDTAAPVPQKDLEIFKNF","3.0-fold, 4.2-fold and 6.3-fold enhanced amounts of S214 phosphorylated tau were found in the cells infected with PRKX overexpression lentivirus at MOI-1, 3 and 6, respectively","3.0-fold, 4.2-fold and 6.3-fold enhanced amounts of S214 phosphorylated tau were found in the cells infected with PRKX overexpression lentivirus at MOI-1, 3 and 6, respectively","3.0-fold, 4.2-fold and 6.3-fold enhanced amounts of S214 phosphorylated tau were found in the cells infected with PRKX overexpression lentivirus at MOI-1, 3 and 6, respectively","1.3-fold, 1.9-fold and 2.9-fold enhanced S214 phosphorylation was found in the cells incorporating 0.02 µg, 0.06 µg and 0.2 µg of PRKX expression plasmid, respectively","1.3-fold, 1.9-fold and 2.9-fold enhanced S214 phosphorylation was found in the cells incorporating 0.02 µg, 0.06 µg and 0.2 µg of PRKX expression plasmid, respectively","1.3-fold, 1.9-fold and 2.9-fold enhanced S214 phosphorylation was found in the cells incorporating 0.02 µg, 0.06 µg and 0.2 µg of PRKX expression plasmid, respectively","2.5-fold, 3.4-fold and 5.8-fold enhanced S214 phosphorylation was found in the cells incorporating 0.02 µg, 0.06 µg and 0.2 µg of PRKX expression plasmid, respectively","2.5-fold, 3.4-fold and 5.8-fold enhanced S214 phosphorylation was found in the cells incorporating 0.02 µg, 0.06 µg and 0.2 µg of PRKX expression plasmid, respectively","2.5-fold, 3.4-fold and 5.8-fold enhanced S214 phosphorylation was found in the cells incorporating 0.02 µg, 0.06 µg and 0.2 µg of PRKX expression plasmid, respectively",–,–
"inactive PRKX protein without kinase activity (D172A), overexpressed from pD172A plasmid or D172A overexpression lentivirus (protein) MEAPGLAQAAAAESDSRKVAEETPDGAPALCPSPEALSPEPPVYSLQDFDTLATVGTGTFGRVHLVKEKTAKHFFALKVMSIPDVIRLKQEQHVHNEKSVLKEVSHPFLIRLFWTWHDERFLYMLMEYVPGGELFSYLRNRGRFSSTTGLFYSAEIICAIEYLHSKEIVYRALKPENILLDRDGHIKLTDFGFAKKLVDRTWTLCGTPEYLAPEVIQSKGHGRAVDWWALGILIFEMLSGFPPFFDDNPFGIYQKILAGKIDFPRHLDFHVKDLIKKLLVVDRTRRLGNMKNGANDVKHHRWFRSVDWEAVPQRKLKPPIVPKIAGDGDTSNFETYPENDWDTAAPVPQKDLEIFKNF",–,–,–,–,–,–,–,–,–,D172A overexpression lentivirus and lacZ overexpression lentivirus did not show an enhanced amount of S214 phosphorylated tau,enhanced S214 phosphorylation was not found in pD172A tranfected cell

# Reference: patent US20110294144
